Measured values from US20260317429 (published 2026).
Where two headings read alike, the source gives them in different places.

What was measured:
FGFR2IIIb-his (ECD) [1] = biological target: T1, FGFR2IIIb-his (ECD) (human); assay: ELISA
T1 chain: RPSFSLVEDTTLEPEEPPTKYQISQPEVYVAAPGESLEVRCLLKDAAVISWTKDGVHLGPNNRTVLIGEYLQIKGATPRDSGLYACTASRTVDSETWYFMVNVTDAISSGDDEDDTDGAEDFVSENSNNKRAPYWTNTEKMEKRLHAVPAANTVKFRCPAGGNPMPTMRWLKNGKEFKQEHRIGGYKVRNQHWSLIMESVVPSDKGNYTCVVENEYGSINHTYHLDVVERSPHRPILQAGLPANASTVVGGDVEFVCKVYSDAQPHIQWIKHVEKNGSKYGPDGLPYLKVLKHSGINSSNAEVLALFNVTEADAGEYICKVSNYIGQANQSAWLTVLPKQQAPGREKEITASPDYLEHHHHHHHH

FGFR2IIIb-Fc [2] = biological target: T2, FGFR2IIIb-Fc (human, UniProt P21802); assay: competition ELISA, FGF1
Target sequence in this assay (P21802 22-377): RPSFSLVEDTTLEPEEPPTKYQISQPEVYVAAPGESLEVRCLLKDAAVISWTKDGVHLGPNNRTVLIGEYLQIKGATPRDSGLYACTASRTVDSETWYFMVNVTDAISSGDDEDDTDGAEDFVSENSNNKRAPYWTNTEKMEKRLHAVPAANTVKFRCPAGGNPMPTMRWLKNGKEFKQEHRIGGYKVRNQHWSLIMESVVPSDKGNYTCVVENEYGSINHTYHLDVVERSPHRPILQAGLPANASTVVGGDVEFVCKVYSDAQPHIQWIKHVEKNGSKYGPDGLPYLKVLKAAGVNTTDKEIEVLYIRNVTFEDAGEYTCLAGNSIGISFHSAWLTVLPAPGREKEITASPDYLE

FGFR2IIIb on cells [3] = biological target: T3, FGFR2IIIb on cells (human, UniProt P21802); assay: FACS, SNU-16
Target sequence in this assay (P21802 22-377): as above

FGFR2IIIb-his (ECD) [4] = biological target: T1, FGFR2IIIb-his (ECD); assay: SPR
FGFR2IIIb-Fc [5] = biological target: T2, FGFR2IIIb-Fc; assay: competition ELISA, FGF10
Target sequence in this assay (P21802 22-377): as above

FGFR2IIIb on cells [6] = biological target: T3, FGFR2IIIb on cells; assay: FACS, CHO-FGFR2IIIb
Target sequence in this assay (P21802 22-377): as above

FGFR2IIIb-Fc [7] = biological target: T2, FGFR2IIIb-Fc; assay: competition ELISA, FGF1; remark: listed apart in the source
FGFR2IIIb-Fc [8] = biological target: T2, FGFR2IIIb-Fc; assay: competition ELISA, FGF10; remark: listed apart in the source
mouse FGFR2IIIb = biological target: T4, mouse FGFR2IIIb (mouse, UniProt P21803); assay: ELISA
T4 chain: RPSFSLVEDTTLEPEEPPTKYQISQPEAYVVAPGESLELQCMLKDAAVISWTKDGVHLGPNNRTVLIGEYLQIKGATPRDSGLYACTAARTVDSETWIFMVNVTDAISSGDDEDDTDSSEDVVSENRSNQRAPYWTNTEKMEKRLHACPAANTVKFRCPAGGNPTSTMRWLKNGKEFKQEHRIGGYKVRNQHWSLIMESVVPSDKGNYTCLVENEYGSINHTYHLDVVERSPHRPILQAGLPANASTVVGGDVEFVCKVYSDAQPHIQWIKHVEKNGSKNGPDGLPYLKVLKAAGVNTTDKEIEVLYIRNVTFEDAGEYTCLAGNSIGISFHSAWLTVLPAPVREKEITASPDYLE

FGFR2IIIb-Fc [9] = biological target: T2, FGFR2IIIb-Fc; assay: competition ELISA, FGF7
FGFR2IIIb on cells [10] = biological target: T3, FGFR2IIIb on cells; assay: FACS, CHO-FGFR2IIIb; remark: listed apart in the source
FGFR2IIIb on cells [11] = biological target: T3, FGFR2IIIb on cells; assay: FACS, SNU-16; remark: listed apart in the source
FGFR2IIIb-his (ECD) [12] = biological target: T1, FGFR2IIIb-his (ECD); assay: ELISA
FGFR2IIIb-Fc [13] = biological target: T2, FGFR2IIIb-Fc; assay: competition ELISA, FGF1; remark: listed apart in the source
FGFR2IIIb-Fc [14] = biological target: T2, FGFR2IIIb-Fc; assay: competition ELISA, FGF7; remark: listed apart in the source
FGFR2IIIb-Fc [15] = biological target: T2, FGFR2IIIb-Fc; assay: competition ELISA, FGF10; remark: listed apart in the source
FGFR2IIIc-his (ECD) = FGFR2IIIc-his (ECD) (human); assay: ELISA
FGFR2IIIb-Fc [16] = biological target: T2, FGFR2IIIb-Fc; assay: competition ELISA, FGF10; remark: listed apart in the source
FGFR2IIIb-his (ECD) [17] = biological target: T1, FGFR2IIIb-his (ECD); assay: ELISA
FGFR2IIIb-Fc [18] = biological target: T2, FGFR2IIIb-Fc; assay: competition ELISA, FGF7; remark: listed apart in the source

Binder | EC50 (FGFR2IIIb-his (ECD) [1]) [µg/mL] | IC50 (FGFR2IIIb-Fc [2]) [µg/mL] | EC50 (FGFR2IIIb on cells [3]) [µg/mL] | Kd (FGFR2IIIb-his (ECD) [4]) [nM] | IC50 (FGFR2IIIb-Fc [5]) [µg/mL] | EC50 (FGFR2IIIb on cells [6]) [µg/mL] | other results
III-11 (antibody, V domains shown) VH: QVQLVQSGAEVKKPGSSVKVSCKASGYTFAIYNMHWVRQAPGQGLEWIGAIYPDNGDTFYNQKFKGKATLTADKSTSTAYMELSSLRSEDTAVYYCARGDFGYWGQGTLVTVSS VL: DIVMTQSPSSLSASVGDRVTITCKASQDVNIDPAWYQQKPGKAPKLLIYLASYRYTGVPSRFSGSGSGTDFTFTISSLQPEDFATYYCQQHYSTPYTFGQGTKLEIK | 0.051 | 1.18 | 0.319 | 1.24 | 0.976 | 0.19 | 
III-13 (antibody, V domains shown) VH: QVQLVQSGAEVKKPGSSVKVSCKASGYTFAIYNMHWVRQAPGQGLEWIGAIYPDNGDTSYNQKFKGKATLTADKSTSTAYMELSSLRSEDTAVYYCARGDFGYWGQGTLVTVSS VL: DIVMTQSPSSLSASVGDRVTITCKASQDVNIDVAWYQQKPGKAPKLLIYLASYRYTGVPSRFSGSGSGTDFTFTISSLQPEDFATYYCQQTYSTPYTFGQGTKLEIK |  | 0.966 |  | 1.23 | 0.905 |  | 
III-10 (antibody, V domains shown) VH: QVQLVQSGAEVKKPGSSVKVSCKASGYTFANYNMHWVRQAPGQGLEWIGAIYPGNGDTSYNQKFKGKATLTADKSTSTAYMELSSLRSEDTAVYYCARGDFGYWGQGTLVTVSS VL: DIVMTQSPSSLSASVGDRVTITCKASQDVNIDVAWYQQKPGKAPKLLIYSASYRYTGVPSRFSGSGSGTDFTFTISSLQPEDFATYYCQQHYSTPYTFGQGTKLEIK | 0.052 |  | 0.471 | 68.1 |  | 0.257 | IC50 (FGFR2IIIb-Fc [7]): 0.581 µg/mL; IC50 (FGFR2IIIb-Fc [8]): 0.724 µg/mL; EC50 (mouse FGFR2IIIb): 0.127 µg/mL; IC50 (FGFR2IIIb-Fc [9]): 0.565 µg/mL
III-14 (antibody, V domains shown) VH: QVQLVQSGAEVKKPGSSVKVSCKASGYTFAIYNMHWVRQAPGQGLEWIGAIYPGNGDTFYNQKFKGKATLTADKSTSTAYMELSSLRSEDTAVYYCARGDFGYWGQGTLVTVSS VL: DIVMTQSPSSLSASVGDRVTITCKASQDVNIDVAWYQQKPGKAPKLLIYLASYRYTGVPSRFSGSGSGTDFTFTISSLQPEDFATYYCQQTYSTPYTFGQGTKLEIK | 0.058 | 0.974 | 0.526 | 1.26 | 0.937 | 0.263 | 
III-12 (antibody, V domains shown) VH: QVQLVQSGAEVKKPGSSVKVSCKASGYTFANYNMHWVRQAPGQGLEWIGAIYPDNGDTSYNQKFKGKATLTADKSTSTAYMELSSLRSEDTAVYYCARGDFGYWGQGTLVTVSS VL: DIVMTQSPSSLSASVGDRVTITCKASQDVNIDVAWYQQKPGKAPKLLIYLASYRYTGVPSRFSGSGSGTDFTFTISSLQPEDFATYYCQQTYSTPYTFGQGTKLEIK |  | 1.08 |  | 1.32 | 0.999 |  | 
III-15 (antibody, V domains shown) VH: QVQLVQSGAEVKKPGSSVKVSCKASGYTFAIYNMHWVRQAPGQGLEWIGAIYPDNGDTFYNQKFKGKATLTADKSTSTAYMELSSLRSEDTAVYYCARGDFGYWGQGTLVTVSS VL: DIVMTQSPSSLSASVGDRVTITCKASQDVNIDVAWYQQKPGKAPKLLIYLASYRYTGVPSRFSGSGSGTDFTFTISSLQPEDFATYYCQQTYSTPYTFGQGTKLEIK | 0.042 | 0.941 | 0.378 | 1.04 | 0.805 | 0.26 | 
III-0 (antibody, V domains shown) VH: QVQLQQPGAELVRPGASVKMSCKASGYTFANYNMHWVKQTPRQGLEWIGAIYPGNGDTSYNQKFKGKATLTADKSSSTAYMQLSSLTSEDSAVYYCARGDFGYWGQGTTLTVSS VL: DIVMTQSHKFMSTSVGDRVTITCKASQDVNIDVAWYQQKPGQSPKLLIYSASYRYTGVPDRFTGSGSGTDFTFTISSVQAEDLAVYYCQQHYSTPYTFGGGTKLEIK | 0.048 |  | 0.74 | 81.3 |  | 0.342 | IC50 (FGFR2IIIb-Fc [7]): 0.692 µg/mL; IC50 (FGFR2IIIb-Fc [8]): 0.745 µg/mL; EC50 (FGFR2IIIb on cells [10]): 1.01 µg/mL; EC50 (FGFR2IIIb on cells [11]): 1.64 µg/mL; EC50 (FGFR2IIIb-his (ECD) [12]): 0.0404 µg/mL; IC50 (FGFR2IIIb-Fc [9]): 0.603 µg/mL; IC50 (FGFR2IIIb-Fc [13]): 0.904 µg/mL; IC50 (FGFR2IIIb-Fc [14]): 0.694 µg/mL; IC50 (FGFR2IIIb-Fc [15]): 0.84 µg/mL
27E9A11 (antibody, V domains shown) VH: QVQLQQPGAELVRPGASVKMSCKASGYTFANYNMHWVKQTPRQGLEWIGAIYPGNGDTSYNQKFKGKATLTADKSSSTAYMQLSSLTSEDSAVYYCARGDFGYWGQGTTLTVSS VL: DIVMTQSHKFMSTSVGDRVTITCKASQDVNIDVAWYQQKPGQSPKLLIYSASYRYTGVPDRFTGSGSGTDFTFTISSVQAEDLAVYYCQQHYSTPYTFGGGTKLEIK |  |  |  |  |  |  | binding result (FGFR2IIIc-his (ECD)): no binding; IC50 (FGFR2IIIb-Fc [16]): 0.545 µg/mL; EC50 (FGFR2IIIb-his (ECD) [17]): 0.05 µg/mL; IC50 (FGFR2IIIb-Fc [18]): 0.417 µg/mL
